Test results from IntAct's records for PubMed 24705553.

B1: Autophagy-related protein 19 (Saccharomyces cerevisiae), P35193 (parent)
chain: MNNSKTNQQMNTSMGYPLTVYDECNKFQLIVPTLDANIMLWCIGQLSLLNDSNGCKHLFWQPNDKSNVRILLNNYDYGHLFKYLQCQRKCSVYIGEGTLKKYNLTISTSFDNFLDLTPSEEKESLCREDAHEDPVSPKAGSEEEISPNSTSNVVVSRECLDNFMKQLLKLEESLNKLELEQKVTNKEPNHRISGTIDIPEDRSELVNFFTELKTVKQLEDVFQRYHDYERLSQECDSKTEIASDHSKKETKIEVEPPNERSLQITMNQRDNSLYFQLFNNTNSVLAGNCKLKFTDAGDKPTTQIIDMGPHEIGIKEYKEYRYFPYALDLEAGSTIEIENQYGEVIFLGKYGSSPMINLRPPSRLSAESLQASQEPFYSFQIDTLPELDDSSIISTSISLSYDGDDNEKALTWEEL
partner: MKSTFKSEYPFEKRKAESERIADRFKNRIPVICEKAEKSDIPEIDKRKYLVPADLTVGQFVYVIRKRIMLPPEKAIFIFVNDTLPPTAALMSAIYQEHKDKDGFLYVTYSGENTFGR
B2: Autophagy-related protein 34 (Saccharomyces cerevisiae), Q12292 (parent)
chain: MKIAVETTLFDFFVIDQFKKSTFSAPNTKVDTIKGCINKFIEQFNVYDEQHIFWQPPGKSNVRLLSNANDFGQLGNFLHKKIKCNIFIGEEALRKYDLNICGPYDKFVENSDPSVKKVVNRDDVMLSRKCLNIISEQLSILEKSISKAQNQVLQSSEVEGKKCIILPEDKPELIKFFSKFETSVQLQEVYEGYKVYEKLLQKFGGQKKRMESFLNENTPMSGAEAIKQINISEELKEKGERLTTPNDPLLHVEVSNEDNSLHFILYNKTNIIIPGNCTFEFSSQISEVFSIKMGPHEIGIKGQKELWFFPSLPTPLSNYTMKVVNQDGETILVGKCADSNEITLKSPLASFSTGSFQTGSFHTLQDPTNVFRADALSSPDESSIMSTPFLGETDEVYNSGSTLSRPFTWEEI
partner: B1 partner

Variants of: B1
Settings: with atg8_yeast ATG8, P38182

effect of a mutation on the interaction | Variant
decreasing interaction strength | F376A;F379A;P385A;E386A;W412A
decreasing interaction strength | F376A;F379A
decreasing interaction strength | F376A;F379A;W412A

Variants of: B1
Settings: with atg8_yeast ATG8, P38182
Remark: another data set of the same source

effect of a mutation on the interaction | Variant
disrupting interaction strength | F376A;F379A;P385A;E386A;W412A
decreasing interaction strength | F379A;W412A
decreasing interaction strength | P385A;E386A;W412A

Variants of: B1
Settings: with atg8_yeast ATG8, P38182
Remark: another data set of the same source

effect of a mutation on the interaction | Variant
disrupting interaction strength | F376A;F379A;W412A

Variants of: B1
Settings: with atg8_yeast ATG8, P38182
Remark: another data set of the same source

effect of a mutation on the interaction | Variant
decreasing interaction strength | W412A

Variants of: B2
Settings: with atg8_yeast ATG8, P38182

effect of a mutation on the interaction | Variant
disrupting interaction strength | W409A
